Earlier results, collected in PMC6943629, “Binding of Gold(III) Porphyrin by the Pro-metastatic Regulatory Protein Human Galectin-3” (Molecules, 2019).

Columns and labels:
MUC18 (Homo sapiens) = MUC18 (Homo sapiens) (UniProt P43121); assay: bio-layer interferometry
[1] = biological target: asialofetuin (Bos taurus) (UniProt P12763)
Chain of asialofetuin (Bos taurus) (P12763 19-359): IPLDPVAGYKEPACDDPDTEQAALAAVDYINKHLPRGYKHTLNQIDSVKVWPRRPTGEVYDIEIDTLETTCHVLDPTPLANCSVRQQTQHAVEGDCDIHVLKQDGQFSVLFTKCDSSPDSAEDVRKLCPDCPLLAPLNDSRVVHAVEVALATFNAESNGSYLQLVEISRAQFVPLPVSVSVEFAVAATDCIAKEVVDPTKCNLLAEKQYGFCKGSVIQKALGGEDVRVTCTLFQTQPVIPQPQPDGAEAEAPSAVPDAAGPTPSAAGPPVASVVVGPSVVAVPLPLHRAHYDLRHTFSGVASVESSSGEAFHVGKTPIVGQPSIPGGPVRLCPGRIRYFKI

Chain of galectin-3 (P17931 2-250): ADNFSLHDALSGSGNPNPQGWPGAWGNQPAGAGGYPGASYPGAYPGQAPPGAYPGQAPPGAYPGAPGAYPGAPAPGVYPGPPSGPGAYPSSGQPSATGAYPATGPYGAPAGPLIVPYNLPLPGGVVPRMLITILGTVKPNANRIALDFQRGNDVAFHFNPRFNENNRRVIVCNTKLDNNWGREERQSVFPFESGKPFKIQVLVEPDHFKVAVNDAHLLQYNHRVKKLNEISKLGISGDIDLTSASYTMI
Chain of MUC18 (Homo sapiens) (P43121 24-646): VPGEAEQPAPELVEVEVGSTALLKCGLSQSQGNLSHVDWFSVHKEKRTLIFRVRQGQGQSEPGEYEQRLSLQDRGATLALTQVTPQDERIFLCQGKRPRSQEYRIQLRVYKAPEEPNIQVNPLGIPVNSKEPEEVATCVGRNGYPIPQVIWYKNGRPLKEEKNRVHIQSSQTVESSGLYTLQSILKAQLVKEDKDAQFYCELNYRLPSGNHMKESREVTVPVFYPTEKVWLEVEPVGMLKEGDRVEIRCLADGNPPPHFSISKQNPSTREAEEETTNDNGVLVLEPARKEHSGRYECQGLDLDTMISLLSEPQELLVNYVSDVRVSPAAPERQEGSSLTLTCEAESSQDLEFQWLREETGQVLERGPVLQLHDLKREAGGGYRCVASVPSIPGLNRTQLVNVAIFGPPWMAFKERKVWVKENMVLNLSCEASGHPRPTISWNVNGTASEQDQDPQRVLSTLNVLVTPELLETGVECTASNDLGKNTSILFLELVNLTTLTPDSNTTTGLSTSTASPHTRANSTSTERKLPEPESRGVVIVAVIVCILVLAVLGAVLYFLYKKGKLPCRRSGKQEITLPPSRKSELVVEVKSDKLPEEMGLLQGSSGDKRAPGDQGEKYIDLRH

Kd (MUC18 (Homo sapiens)): 430 nM
Kd [1]: 720 nM
Substance: galectin-3 (from UniProt P17931)
